{
  "source": "paper PMC7971322",
  "about": "“Insights into the mechanism regulating the differential expression of the P28-OMP outer membrane proteins in obligatory intracellular pathogen Ehrlichia chaffeensis”",
  "key": {"[1]": {"biological_target": "T1, rTr1 (Ehrlichia chaffeensis) (UniProt Q2GF81)", "T1 sequence": "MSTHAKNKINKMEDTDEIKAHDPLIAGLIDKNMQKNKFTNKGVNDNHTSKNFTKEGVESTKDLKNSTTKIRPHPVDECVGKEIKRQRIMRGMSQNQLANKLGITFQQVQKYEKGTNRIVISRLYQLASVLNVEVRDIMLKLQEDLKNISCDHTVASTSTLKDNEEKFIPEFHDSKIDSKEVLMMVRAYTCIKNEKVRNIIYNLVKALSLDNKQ", "assay": "DNase I footprinting", "conditions": "EMSA/footprint: 10 mM Tris-HCl pH 7.5, 100 mM NaCl, 1 mM DTT, 10% glycerol, 25 C, SPR: 10 mM Tris-HCl pH 7.5, 100 mM NaCl, 0.05% Tween 20, 25 C"}, "[2]": {"biological_target": "T1, rTr1 (Ehrlichia chaffeensis)", "assay": "EMSA", "conditions": "EMSA/footprint: 10 mM Tris-HCl pH 7.5, 100 mM NaCl, 1 mM DTT, 10% glycerol, 25 C, SPR: 10 mM Tris-HCl pH 7.5, 100 mM NaCl, 0.05% Tween 20, 25 C"}, "[3]": {"biological_target": "T2, rEcxR (Ehrlichia chaffeensis) (UniProt Q2GG40)", "T2 sequence": "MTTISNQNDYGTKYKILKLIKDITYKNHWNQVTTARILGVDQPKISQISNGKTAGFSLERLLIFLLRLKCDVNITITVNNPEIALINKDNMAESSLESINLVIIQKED", "assay": "EMSA", "conditions": "EMSA/footprint: 10 mM Tris-HCl pH 7.5, 100 mM NaCl, 1 mM DTT, 10% glycerol, 25 C, SPR: 10 mM Tris-HCl pH 7.5, 100 mM NaCl, 0.05% Tween 20, 25 C"}, "rEcxR": {"biological_target": "T3, rEcxR (Ehrlichia chaffeensis, UniProt Q2GG40 1-108)", "T3 sequence": "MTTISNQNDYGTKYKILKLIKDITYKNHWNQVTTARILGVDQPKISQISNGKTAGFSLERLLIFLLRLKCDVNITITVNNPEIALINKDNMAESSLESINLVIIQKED", "assay": "SPR; EMSA/footprint: 10 mM Tris-HCl pH 7.5, 100 mM NaCl, 1 mM DTT, 10% glycerol, 25 C; SPR: 10 mM Tris-HCl pH 7.5, 100 mM NaCl, 1 mM DTT, 0.05% Tween 20, 25 C", "conditions": "protein: recombinant, tags: C-terminal His (pET-29a), chain copies: 2, none in plain EMSA"}, "rTr1 [4]": {"biological_target": "T4, rTr1 (Ehrlichia chaffeensis, UniProt Q2GF81 1-213)", "T4 sequence": "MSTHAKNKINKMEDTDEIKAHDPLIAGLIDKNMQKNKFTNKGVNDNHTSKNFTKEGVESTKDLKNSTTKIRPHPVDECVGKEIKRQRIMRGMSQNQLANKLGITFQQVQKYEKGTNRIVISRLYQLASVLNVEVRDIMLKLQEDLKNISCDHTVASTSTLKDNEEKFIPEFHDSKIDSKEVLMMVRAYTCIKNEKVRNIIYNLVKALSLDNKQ", "assay": "SPR; EMSA/footprint: 10 mM Tris-HCl pH 7.5, 100 mM NaCl, 1 mM DTT, 10% glycerol, 25 C; SPR: 10 mM Tris-HCl pH 7.5, 100 mM NaCl, 1 mM DTT, 0.05% Tween 20, 25 C", "conditions": "protein: recombinant, tags: N-terminal His (pET-33b), chain copies: 2"}, "rTr1 [5]": {"biological_target": "T4, rTr1", "assay": "competition; 50-fold unlabelled vs biotinylated region I, 1 uM rTr1; EMSA/footprint: 10 mM Tris-HCl pH 7.5, 100 mM NaCl, 1 mM DTT, 10% glycerol, 25 C; SPR: 10 mM Tris-HCl pH 7.5, 100 mM NaCl, 1 mM DTT, 0.05% Tween 20, 25 C", "conditions": "protein: recombinant; tags: N-terminal His (pET-33b); chain copies: 2; blunt"}, "rTr1 [6]": {"biological_target": "T4, rTr1", "assay": "EMSA; 1.8 uM rTr1; EMSA/footprint: 10 mM Tris-HCl pH 7.5, 100 mM NaCl, 1 mM DTT, 10% glycerol, 25 C; SPR: 10 mM Tris-HCl pH 7.5, 100 mM NaCl, 1 mM DTT, 0.05% Tween 20, 25 C", "conditions": "protein: recombinant; tags: N-terminal His (pET-33b); chain copies: 2; blunt"}, "rTr1 [7]": {"biological_target": "T4, rTr1", "assay": "competition; 50-fold unlabelled vs biotinylated region II, 1 uM rTr1; EMSA/footprint: 10 mM Tris-HCl pH 7.5, 100 mM NaCl, 1 mM DTT, 10% glycerol, 25 C; SPR: 10 mM Tris-HCl pH 7.5, 100 mM NaCl, 1 mM DTT, 0.05% Tween 20, 25 C", "conditions": "protein: recombinant; tags: N-terminal His (pET-33b); chain copies: 2; blunt"}},
  "data": [
    {"molecule": "ATGATATCAATGCACTTGTTATGAAAACTTTTTTGTAATTCATATATAACCTAATAGTGACAAATAAATTAACAATAGTAGAAGTGTCATATAAAAGCAAGTCAGAATATAAATTTTTGTATAAAATATCGGTAACTTTTGTAAGGAAAATTTAATATATTACGTCAGGTAAGTAATAGCAAAAAAACTGGTTAAGTATAGTATCATGTGTAAAGGTGAGAAAAACAGCACTTATA (double strand) [p28 promoter footprint fragment]", "values": [
      {"measurement": "binding", "setting": "[1]", "value": "binds"}
    ]},
    {"molecule": "CCTATAACAAAGCAACCTATGTAAGATAAATCATGCATAAAGTGAATGCAATAGTTATTTAATGGATATATTCTATCTAGTTTGCTGGAATAGTATACTAATTATATAATATACAGAAATAACATATTATGCTTTATGAAATATAAGATAAAATTTATTTACTTTTTAGCTTGATTGGATCAATAATTTATATTAAACATGAAAGTCAGTTTGTCCGGGT (double strand) [tr1 promoter EMSA probe]", "values": [
      {"measurement": "binding", "setting": "[2]", "value": "binds"},
      {"measurement": "binding", "setting": "[3]", "value": "binds"}
    ]},
    {"molecule": "CCTATAACAAAGCAACCTATGTAAGATAAATCATGCATAAAGTGAATGCAATAGTTATTTAATGGATATATTCTATCTAGTTTGCTGGAATAGTATACTAATTATATAATATACAGAAATAACATATTATGCTTTATGAAATATAAGATAAAATTTATTTACTTTTTAGCTTGATTGGATCAATAATTTATATTAAACATGAAAGTCAGTTTGTCCGGGT (double strand) [tr1 promoter footprint fragment]", "values": [
      {"measurement": "binding", "setting": "[1]", "value": "binds"}
    ]},
    {"molecule": "GAATTTGTGATTTGAAATAACAAGACTTAAATGTCGAATTTAGCTTCTGTCCTAGTGGATAAGTACTTTAGCAAGTGGTAAAAGCAAGTCTACTCATATTTTTATTAATTAAGTAGTAAAGTTAACTATAGATTTTATTAAAATTTTTATTCTAATCACTTTAAATATCAATTACTTTTGTTGTAAATTTGAAAGAAATTTTATATTCTAGACTTGCTTTTCTTTATTTCTTTCATTATTCTTAAATTTTTATTATCTTTTATAAAAGGTTTATTAAC (double strand) [omp-1B promoter EMSA probe]", "values": [
      {"measurement": "binding", "setting": "[2]", "value": "binds"},
      {"measurement": "binding", "setting": "[3]", "value": "binds"}
    ]},
    {"molecule": "GAATTTGTGATTTGAAATAACAAGACTTAAATGTCGAATTTAGCTTCTGTCCTAGTGGATAAGTACTTTAGCAAGTGGTAAAAGCAAGTCTACTCATATTTTTATTAATTAAGTAGTAAAGTTAACTATAGATTTTATTAAAATTTTTATTCTAATCACTTTAAATATCAATTACTTTTGTTGTAAATTTGAAAGAAATTTTATATTCTAGACTTGCTTTTCTTTATTTCTTTCATTATTCTTAAATTTTTATTATCTTTTATAAAAGGTTTATTAAC (double strand) [omp-1B promoter footprint fragment]", "values": [
      {"measurement": "binding", "setting": "[1]", "value": "binds"}
    ]},
    {"molecule": "GTGATAGGGAATGAATTCAGAGATATTCCTGCTATGATACCCAGTACCTCAACTCTCACAGGTAATCACTTTACTATAGTAACACTAAGTGTATGCCACTTTGGAGTGGAACTTGGAGGAAGGTTTAACTTTTAATTTTATTATTGCCACATGTTAAAAATAATCTAAACTTGTTTTTATTATTGCTGCAGGTAAATAAAAATAGTGGCAAAAGAATGTAGCAATAAGAGGGGGGGGGGGGGGACTAGTTTATAAGTGCTGTTTTTCTCACCTTTA (double strand) [p28 II footprint fragment]", "values": [
      {"measurement": "binding", "setting": "[1]", "value": "binds"}
    ]},
    {"molecule": "Tr1 protected region I (p28 promoter) (dsDNA) DNA 1: TACACATGATACTATACTTAACCAGTTTTTTTGCTATTACTTACCTGACG DNA 2: CGTCAGGTAAGTAATAGCAAAAAAACTGGTTAAGTATAGTATCATGT", "values": [
      {"measurement": "binding result", "setting": "rEcxR; 5' overhang 3 nt on strand 1 (reverse oligo as printed is 47 nt)", "value": "no binding"},
      {"measurement": "Kd", "setting": "rTr1 [4]; none in plain EMSA, 5' overhang 3 nt on strand 1 (reverse oligo as printed is 47 nt)", "value": 2.52, "unit": "nM"}
    ]},
    {"molecule": "Tr1 protected region I, mutated motif (dsDNA) DNA 1: TACACATGATGGGGGGCTTAACCAGTTTTTTTGCTATTACTTACCTGACG DNA 2: CGTCAGGTAAGTAATAGCAAAAAAACTGGTTAAGCCCCCCATCATGTGTA", "values": [
      {"measurement": "binding result", "setting": "rTr1 [5]", "value": "no binding"}
    ]},
    {"molecule": "Tr1 protected region III (tr1 promoter) (dsDNA) DNA 1: TAAAGCATAATATGTTATTTCTGTATATTATATAAT DNA 2: ATTATATAATATACAGAAATAACATATTATGCTTTA", "values": [
      {"measurement": "binding result", "setting": "rTr1 [6]", "value": "binds"}
    ]},
    {"molecule": "Tr1 protected region II (omp-1B promoter) (dsDNA) DNA 1: AGTAAAGTTAACTATAGATTTTATTAAAATTTTTATTCTAATCACTTTAA DNA 2: TTAAAGTGATTAGAATAAAAATTTTAATAAAATCTATAGTTAACTTTACT", "values": [
      {"measurement": "binding result", "setting": "rEcxR; blunt", "value": "no binding"},
      {"measurement": "Kd", "setting": "rTr1 [4]; none in plain EMSA, blunt", "value": 15.5, "unit": "nM"}
    ]},
    {"molecule": "Tr1 protected region II, mutated motif (dsDNA) DNA 1: AGTAAAGTTAGGGGGGGATTTTATTAAAATTTTTATTCTAATCACTTTAA DNA 2: TTAAAGTGATTAGAATAAAAATTTTAATAAAATCCCCCCCTAACTTTACT", "values": [
      {"measurement": "binding result", "setting": "rTr1 [7]", "value": "no binding"}
    ]},
    {"molecule": "Tr1 protected region IV (upstream of p28) (dsDNA) DNA 1: TAATCACTTTACTATAGTAACACTAAGTGTATGCCACTTTGGAGTGGAAC DNA 2: GTTCCACTCCAAAGTGGCATACACTTAGTGTTACTATAGTAAAGTGATTA", "values": [
      {"measurement": "Kd", "setting": "rTr1 [4]; label: biotin for SPR (note on S35), blunt", "value": 14, "unit": "nM"}
    ]}
  ]
}
